This note sets out measurements from the DeepSol protein solubility set.

A short description of this series: soluble on expression in E. coli; label from the status in PepcDB or PDB records.
For the sequence “MARFALVLHAHLPYVRAHGMWPFGEETLYEAMAETYLPLIRVLERLRAEGVEAPFTLGITPILAEQLADARIKEGFWAYAKDRLERAQGDYQRYRGTALEASARHQVAFWELTLDHFQRLSGDLVAAFRKAEEGGQVELITSNATHGYSPLLGYDEALWAQIKTGVSTYRRHFAKDPTGFWLPEMAYRPKGPWKPPVEGPPEGVRPGVDELLMRAGIRYTFVDAHLVQGGEPLSPYGEAALGPVESQEATYHVHELESGLRVLARNPETTLQVWSADYGYPGEGLYREFHRKDPLSGLHHWRVTHRKADLAEKAPYDPEAAFAKTEEHARHFVGLLERLAGRHPEGVILSPYDAELFGHWWYEGVAWLEAVLRLLAQNPKVRPVTAREAVQGPAVRTALPEGSWGRGGDHRVWLNEKTLDYWEKVYRAEGAMREAARRGVLPEGVLRQAMRELLLLEASDWPFLMETGQAEAYARERYEEHARAFFHLLKGASPEELRALEERDNPFPEADPRLYLFREA”, the “soluble on expression in E. coli” value is given as “soluble”.

For the sequence “MITDCCPGFGSVAKYIAVSMLEASFDVASMAKTSTKVFILEVMGRHAGWIAAAGGLASNEDHEVPIIILFPEVTFDQEKFLAKTDHYVKEYGYCTVVVSEGVKGTDGKFLSDQGLRDAFGHAQLGGVAPVIANIVKNGLGLEHHHHHH”, the “soluble on expression in E. coli” value is reported as “soluble”.

Regarding “MFFERHGGGERAILVHLDGQDPEAREDPQEFQELALSAGAETVAFVSVPRHRPTAKYLVGSGKVEELRDLVKAEQVDLVIFNHILTPSQERNLERVFECRVIDRTGLILDIFAQRARTHEGKLQVELAQLEHMSTRLVRGWTHLERQKGGIGLRGPGETQLETDRRLLRVRLRQIKARLEKVRSQREQARRGRKRADIPSVSLVGYTNAGKSTLFNAVTASDVFAADQLFATLDPTLRRLELDDLGPIVLADTVGFIRHLPHKLVEAFRATLEESSNSDLLLHVIDAHEPERMAQIEQVMVVLGEIGAQDLPILEVYNKLDLLEGVEPQIQRDPDGKPQRVWLSARDGQGLDLLKQAIAELLGEDLFVGTLRLPQRFARLRAQFFQLNAVQKEDHDDEGVSLLAVRLPRAELNRLVSREGMQPSEFIEQHTLQLEHHHHHH”, the “soluble on expression in E. coli” value is “soluble”.

As for “TNCVTISQREILKGVEGVTWFEVLLEKTSCITIAAQNRPSIDLWLDDVKQSSVMASKEFCMKVEVSETQIAARCPTQGDATLPMEGKDDYVCKKTFSDRGWGNGCALFGKGSIVGCAKVACNTANVMKTHIYEQQAVQYVVGIEVHRGEVIKANVSDKVIKASFSAEAEKHTVEIPDYGSLDFTCRVVASADLSNIRLLEVDGHYFNVHEDWLDDLPLPWRINAGPWRGMDKLVNFREPYAVKMVIMGYGDQRPAVLGALDKAEEIKKVGDNYHLNGGHVSCKVSVAKLKLKGMTYVVCGGKFAWAKKPIATNHDTVAMEVTYTGNDTPCRVTVKNVKENSDDQGTLITTNPFVESNGATIFLELEPVYGLSTIKVGDITYQWNQQGSVIGKALEHHHHHH”, the “soluble on expression in E. coli” value is given as “not soluble”.

Regarding “MSLLQTKPYTFWFITGSQHLYGEDAIEQVRQHSQTMVEKLNKIGELPYTIELKEVLTTPDAIRKMVIAANSDDDCAGMITWMHTFSPAKMWINGLKQLKKPLLHLHTQFNREIPYDDIDMDFMNLNQSAHGDREYGHIGARLNISRKVIVGHWQNNDVQERLGAWMRTAAAFVDGHHLKVARFGDNMREVAVTEGDKVEAQIQFGWSITAFGIGDLVEKMKAVSEDEVRRLFDEYQELYRLSPSILEQDEVKAAVLEQAKMELALKEFLEEGGYTAFTTNFEDLHGMKQLPGLAVQRLMAEGYGFGGEGDWKTAALLRMMKIIADGKGTSFMEDYTYHLAEGNELVLGSHMLEICPTIAANQPEIQVHPLGIGGKEDPARLVFDGADGPALNASLIDLGHRFRLVVNEVEAIKPERDMPKLPVAKVLWKCKPSLSEATEAWIHAGGAHHTVFSFEVTPEQLYDWATLADIEVVFINDKTDVLQFQQQLQWNEAFRRLFKEGHHHHHH”, the “soluble on expression in E. coli” value is “soluble”.

“MEINVQSDVGRKRNTNQDYANVFENQQHITFAVLADGMGGHQAGDVASQMAVNNLGESWSNASVDSAEKSAQWLIQAIQKENEKIYERGQSKPEYLGMGTTVVGAILLPDSFVLANVGDSRAYLVRDQHMLQLTEDHSLVNELVKSGEITREMAANHPRKNVLTRSLGMPGTVEVDVTNHEWLPNDYLLLCSDGLTNMVPETKILEILETSDPLESKLSQLVAQANEAGGLDNITVLVIHFDEQKEENQ”: the “soluble on expression in E. coli” value is recorded as “not soluble”.

Take “MGSDKIHHHHHHMGTRKGDAMEKFDTVVIGAGQAGIATSEHLRALGIDHVVLERGRIAERWRSERWDSLVANGPAWHDRFPGMAFSCDGDVFADKECVARYFEDYAKMIDAPVRTGVTVERARPHADRAGFLVETSQGTFDARNLICATGPFQKPAIPPIIPETSDLTQMHSTAYRNPDALPDGAVLVIGGGSSGSQIAAELHDAGRKVFFSIGPHDRPPRRYRGRDNVWWLGVLGIWNMDTPAPGTEHVTIAVSGAHGGKTVDFRLLAERGITLLGMSSGYEDGVLHIANDLKTNLDAGDANMLSLLEAADAYIKRTGIDLPPEPEAWVIPDDPDCVSNPVRALDLSENNIGTVIWATGFQFDYDWLEADTLDDRGSPIHQRGISAVPGLYFVGLPWQSRRGSSFIWGVWHDAKFIADQIAIQENYLAYRPTASS”: the “soluble on expression in E. coli” value is on record as “not soluble”.

“MAVYLDFENHIKEIQNEIELALIRGDEDAKEILEKRLDKEVKSIYSNLTDFQKLQLARHPDRPYAMDYIDLILKDKYEVFGDRHYNDDKAIVCFVGKIDNVPVVVIGEEKGRGTKNKLLRNFGMPNPCGYR”: the “soluble on expression in E. coli” value is given as “not soluble”.

On to “APYRYLAAGAADVISNLSAVKDWKLAHRLKGEEFSSSAAAMSEYSAQEVLSQINEIKKYEESSVWLVTKNILASGTAMAIAGNSRPGSGSEHLFAHALEAAGVENMLHGEMCAMGTVISMYLHDENWQQIKEAFDNLGISIRSRDYGIEDEIVINALRTAHAIRPERYTILGESDMSYDAAVKALELTGI”, for which the “soluble on expression in E. coli” value is listed as “not soluble”.

In the case of “MGYTVAVVGATGAVGAQMIKMLEESTLPIDKIRYLASARSAGKSLKFKDQDITIEETTETAFEGVDIALFSAGSSTSAKYAPYAVKAGVVVVDNTSYFRQNPDVPLVVPEVNAHALDAHNGIIACPNCSTIQMMVALEPVRQKWGLDRIIVSTYQAVSGAGMGAILETQRELREVLNDGVKPRDLHAEILPSGGDKKHYPIAFNALPQIDVFTDNDYTYEEMKMTKETKKIMEDDSIAVSATCVRIPVLSAHSESVYIETKEVAPIEEVKAAIAAFPGAVLEDDVAHQIYPQAINAVGSRDTFVGRIRKDLDAEKGIHMWVVSDNLLKGAAWNSVQIAETLHERGLVRPTAELKFELK”, the “soluble on expression in E. coli” value was “soluble”.

On to “MDQLEHLSLVSKVLSEVENHFGVVEKDVAEFVIHLAQENPTFDKLKKALDSQGLGDQFDDSLTATILRIVQSMTAVKKKNKKGGDSKEDIKDSHKITLISDAKEEIKARLPALAMANTAKEKEDNEDDLMAQLEKMEGRYESEKRLQKESDSKRNRSRSRSRSRDRKRRRSRSGDRDRRRRSRSREDRRDRDRRDRDRDRDRGRGDRRGDDRQRDRRDRRDDGGARKSEVAEIGKIYDGRVNSIQSFGAFITLEGFRQKQEGLVHISQIRNERVQTVADVLKRGENVKVKVNKIENGKISLSMKEVDQNSGEDLNPRETDLNPDAIGVRPRTPPASTSSWMNPEASGVGQGPSTSIGGGKARVRISTPERWELRQMQGAGVLTATDMPDFDEEMGVLRNYDDESDGEDIEIELVEDEPDFLRGYGKGGAEIEPVKVVKNPDGSLAQAALMQGALSKERKETKIQAQRERDMDTQKGFSSNARILDPMSGNQSTAWSADESKDRNNKMKEMPEWLKHVTAGGKATYGRRTNLSMVEQRESLPIFALKKNLMEAMIDNQILVVVGETGSGKTTQMTQYAIEAGLGRRGKIGCTQPRRVAAMSVAKRVAEEYGCKLGTDVGYTIRFEDCTSQDTIIKYMTDGMLLRECLIDPDLSGYSLIMLDEAHERTIHTDVLFGLLKAAARKRPELKLIITSATLDSVKFSEYFLEAPIFTIPGRTFPVEILYTREPESDYLEAAHITVMQIHLTEPPGDVLVFLTGQEEIDTSCEVLYERMKSMGPDVPELIILPVYGALPSEMQTRIFDPAPAGKRKVVIATNIAETSLTIDGIFYVVDPGFVKQKIYNPKSGMDSLVVTPISQAAAKQRSGRAGRTGPGKCYRLYTERAFRDEMLPTPVPEIQRTNLASTLLQLKAMGINNLIDFDFMDAPPLDSMITALNTLHTLSALDGDGLLTKLGRRMAEFPLEPSLSKLLIMSVDLGCSEEVLTIVAMLNVQNIFYRPKEKQDHADQKKAKFHQPEGDHLTLLAVYNSWKNHHFSQPWCFENFIQVRSMKRAQDIRKQLLGIMDRHKLLMVSCGRDVSRVQKAICSGFFRNAAKRDPQEGYRTLTDGQNVYIHPSSACFQQQPEWVVYHELVMTTKEYMREVTAIDPKWLVEFAPSFFKIGDSTKLSTFKRNQKIDPLFDKYADANAWRITRVKKRIYNPNK”, for which the “soluble on expression in E. coli” value is listed as “soluble”.

Consider “MNRFIMANSQQCLGCHACEVACVMAHNDERHVLTSQRYQPRITVIKHQHQRSAVTCHHCEDAPCARSCPNGAIAHINDSVQVNAQKCIGCKSCVVACPFGTMQMVLTPVAPNQFKASAHKCDLCQGREQGPACVENCPADALQLVTEDSLTRLAKTRRLRTARQEIRPWHTVDTQHSGAASSKAERMQATPPRGEPDKLAIEARKTTFEEIYLPFRAAQAEREASRCLTCGEHSICEWTCPLHNHIPQWIELVKAGDIDAAVELSHQTNCLPEITGRVCPQDRLCEGACTLRDEYGAVTIGNIERYISDRALSKGWRPDLSDVQKSDKRVAIIGAGPAGLACADVLARHGVSATVYDRHPEIGGLLTFGIPAFKLDKSLLARRREIFSAMGIRFELNCEVGKDISLETLLESYDAVFVGVGTYRSMKADLPNEDAPGVYDALPFLIANTKQVMGLPALPDEPFIDTAGLNVVVLGGGDTAMDCVRTALRHGAANVTCAYRRDEANMPGSKKEVKNAREEGANFEFNVQPVELVLDTHGRASGIRFLRTRLGEPDGQGRRRPVPVPDSEFVMPADAVIMAFGFHPHGMSWLESHGVKVDNWGRIAASVESEFRYQTSNPKIFAGGDAVRGADLVVTAMAEGRHAAQGILDWLAK”, for which the “soluble on expression in E. coli” value is recorded as “not soluble”.

Turning to “MSELDTVIKNAEEIAIQEDEEIIEEVIEEEQVPWLGPTDVMEGQGEYYQSEELLEHEMVEYEDAEPYQSFLPIRDGAPYFSLNLPDLLSKAHQITQDTGVIVRLTSCFNKKCQRQVACGGCLYTIKDYVSDIQWNNWTCINPQCFGEIRTTPDFRDIREVHGHTANCPPPDEIQIAVRIAVYDTRLLAEFTDTPLENLYFGAVERLKIDCADGFVLFPPFEVVKSTLEDHRHNKIYRKRFEMQNLRDKQRKMNMTPDEVVFAENTSGMIRFRRTKPFPMSICNVCGEEISSTNLPSQDQLISHYMYTHGRRMTIERYEFKDVNTFEQYLRELNSMGKYKFKRMGLADENMFYLCSHDDRLNKTGIGRATRLQQQSCHCTAFIRVFDWRVRWKLNNLNYEQITKKSDIYTFNAVCKVEDMCMSLLNRLQDCQNPRVALGYREKIAAIVRKSTTDPGLCDEKSVEEIEKSWVLQKPIRGRPRKRVKLENGQEDGGGDLDEDDDVVMDDYEDGEENGDKKITASRRSESPKPASSSSEPPPPSTTEEASTSLADELPRVTREESTSSNTSGHVAGDVTTRSGRARKPPARLLDD”, the “soluble on expression in E. coli” value is given as “not soluble”.

Consider “MTYDALHVFDWIKARSGDNPVYIWGHSLGTGVATNLVRRLCERETPPDALILESPFTNIREEAKSHPFSVIYRYFPGFDWFFLDPITSSGIKFANDENMKHISCPLLILHAEDDPVVPFHLGRKLYNIAAPSRSFRDFKVQFIPFHSDLGYRHKYIYKSPELPRILREFLGKSEPERQH”, for which the “soluble on expression in E. coli” value is recorded as “not soluble”.

With “SYMYDRDGSLVSEIVSDHENRVLVPFNKIPEEVKQIFLTSEDRHFYEHKGFDFMGMVPPTASNVKDKKIDQGASTITQQLSRNLYLSHERSFSRKLTELAYSYQLEKKYTKNEILEAYLNTIYFNNGVYGVGSAAQFYFSKPLKSLTVGEMAFICAIPNNPTLYDPLKHF”, the “soluble on expression in E. coli” value is “not soluble”.
